Experiment [1] concerns the target T1, intercellular cell adhesion molecule-1 (ICAM-1) on the surface of human cells (human, UniProt P05362 28-532).
T1 construct: whole, on cells; Endogenous antigen; also called CD54
The experiment can be described thus: flow cytometry on ARH-77 cells, % of maximal cell ICAM-1 binding. In general terms: In flow cytometry, cells or beads pass a laser one at a time.

The target of experiment [2] is T1, intercellular cell adhesion molecule-1 …. The experiment can be described thus: 125I-IgG saturation binding on Ramos cells at 4° C., Rosenthal-Scatchard plot. The procedure:
Specific binding was determined by subtracting binding in the presence of unlabeled competing protein from total binding.
(§1) Antibody affinity constants (Kd values) and epitope numbers per cell were determined from Scatchard plot analysis according to Rosenthal et al. (Anal. Biochem. (1967) 20:525-532); Bylund and Yamamura (Methods in Neurotransmitter Analysed, New York: Raven Press Ltd., 1990); and Marquardt (J. Soc. Indust. Appl. Math. (1963) 11:431-441), as previously described (Brix et al., J. Clin. Invest. (1998) 102:283-293).
(§2) The specific binding of [¹²⁵I]IgG to the cell surface was calculated by subtracting non-specific binding (binding in the presence of excess unlabelled IgG) from the total binding.

For experiment [3] the target is unchanged. The experiment in a line: flow cytometry on patient bone marrow cells.
Experiment [4] shares this target. The experiment in a line: FACS of bone marrow cells, patient 7.
Experiment [5] has the same target. The experiment can be described thus: FACS of bone marrow cells, patient 1.
For experiment [6] the target is unchanged. The experiment in a line: flow cytometry on myeloma cells of one patient, relapse versus diagnosis.
Experiment [7] has the same target. The experiment can be described thus: FACS of bone marrow cells, patient 2.
Experiment [8] has the same target. The experiment can be described thus: FACS of bone marrow cells, patient 5.
The target is the same in experiment [9]. The experiment can be described thus: 125I-IgG saturation binding, Rosenthal-Scatchard plot (legend of FIG. 5; Ramos cells in the panels, 'Raji cells' at the end of the sentence); legend of FIG. 5; Ramos cells (right panels, IgG B11), though the sentence ends '(Raji cells)'. How it is done: Analysis was performed in triplicates.
as §1, §2

The target is the same in experiment [10]. The experiment in a line: FACS of bone marrow cells, patient 19:2.
For experiment [11] the target is unchanged. The experiment can be described thus: FACS of bone marrow cells, patient 12.
Experiment [12] shares this target. The experiment can be described thus: FACS of bone marrow cells, patient 8.
Experiment [13] shares this target. The experiment in a line: FACS of bone marrow cells, patient 14.
Experiment [14] has the same target. The experiment in a line: flow cytometry, AF647 Zenon-labelled IgG.

This is an account of results in patent publication US20140314793A1 (BIOINVENT INTERNATIONAL, published 2014).

T1 sequence (P05362 28-532): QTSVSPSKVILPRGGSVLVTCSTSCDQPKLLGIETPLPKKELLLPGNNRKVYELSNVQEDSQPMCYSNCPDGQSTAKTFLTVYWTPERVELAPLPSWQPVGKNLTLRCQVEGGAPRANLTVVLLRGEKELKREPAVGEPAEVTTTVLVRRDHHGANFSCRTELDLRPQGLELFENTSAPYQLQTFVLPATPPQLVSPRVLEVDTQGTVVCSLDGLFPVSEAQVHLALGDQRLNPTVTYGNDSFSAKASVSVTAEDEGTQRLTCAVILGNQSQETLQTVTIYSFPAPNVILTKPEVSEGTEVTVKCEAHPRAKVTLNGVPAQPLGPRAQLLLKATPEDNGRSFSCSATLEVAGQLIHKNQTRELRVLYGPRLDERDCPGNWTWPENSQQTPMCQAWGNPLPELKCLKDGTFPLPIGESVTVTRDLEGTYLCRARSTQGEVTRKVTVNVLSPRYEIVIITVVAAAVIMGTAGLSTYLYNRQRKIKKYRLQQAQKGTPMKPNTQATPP

B1: B11 IgG1 (BI-505), fully human anti-ICAM-1 antibody (antibody, V domains shown)
VH: EVQLLESGGGLVQPGGSLRLSCAASGFTFSNAWMSWVRQAPGKGLEWVAFIWYDGSNKYYADSVKGRFTISRDNSKNTLYLQMNSLRAEDTAVYYCARYSGWYFDYWGQGTLVTVSS
VL: QSVLTQPPSASGTPGQRVTISCTGSSSNIGAGYDVHWYQQLPGTAPKLLIYDNNNRPSGVPDRFSGSKSGTSASLAISGLRSEDEADYYCQSYDSSLSAWLFGGGTKLTVL
notes: That 6 is VH and 8 is VL follows only from the order 'VH and VL'; also called IgG B11
The term EC50 (read off the curve) denotes the concentration giving half of the maximal effect. Lower therefore signals an effect from little substance. Usually Kd stands for the concentration at which binding is half-saturated. Lower therefore signals a tighter complex. With B1, the 50% effective concentration (EC50 (read off the curve)) in experiment [1] was around 0.05 µg/mL. The Kd in experiment [2] is around 0.2 nM; in [9], around 0.3 nM. Moreover, the “fold expression of the epitope, myeloma cells versus normal B cells” value in experiment [3] came to 10 fold. In addition, the “fold increase of BI-505 epitope on MM cells compared to normal B cells” value in experiment [4] came to 45 fold; in [5] it was 55 fold; in experiment [7], 8 fold; in [8], 9 fold; in experiment [10], 6 fold; in [11] it was 16 fold. The figures for the “fold increase of BI-505 epitope on MM cells compared to normal B cells” value in experiment [12] and in experiment [13] were 12 fold and 5 fold, respectively. Besides, in [6], the “fold expression of the epitope after first relapse” value is 2 fold. In addition, the “fold binding, Ramos versus NK cells” value in experiment [14] amounted to 23 fold. Further, the “fold binding, Ramos versus monocyte cells” value in [14] stood at 3.7 fold. Also, the “fold binding, Ramos versus peripheral blood B lymphocytes” value in experiment [14] was 8.3 fold.
